Data: publication doi:10.1101/2021.10.21.465316 (bioRxiv, 2021)

B1: dehydrodolichyl diphosphate synthase (DHDDS), residues 1-333 (enzyme)
chain: MSWIKEGELSLWERFCANIIKAGPMPKHIAFIMDGNRRYAKKCQVERQEGHSQGFNKLAETLRWCLNLGILEVTVYAFSIENFKRSKSEVDGLMDLARQKFSRLMEEKEKLQKHGVCIRVLGDLHLLPLDLQELIAQAVQATKNYNKCFLNVCFAYTSRHEISNAVREMAWGVEQGLLDPSDISESLLDKCLYTNRSPHPDILIRTSGEVRLSDFLLWQTSHSCLVFQPVLWPEYTFWNLFEAILQFQMNHSVLQKARDMYAEERKRQQLERDQATVTEQLLREGLQASGDAQLRRTRLHKLSARREERVQGFLQALELKRADWLARLGTASA
B2: Nogo B-receptor (NgBR) pseudo cis-prenyltransferase domain, residues 73-293, lacking residues 167-175 (domain or fragment)
chain: RGGSCLAAAHHRMRWRADGRSLEKLPVHMGLVITEVEQEPSFSDIASLVVWCMAVGISYISVYDHQGIFKRNNSRLMDEILKQQQELLGLDCSKDKDDQVLNCHLAVKVLSPEDGKADIVRAAQDFCQLVAQKQKRPTDLDVDTLASLLSSNGCPDPDLVLKFGPVDSTLGFLPWHIRLTEIVSLPSHLNISYEDFFSALRQYAACEQRLGK

What was measured:
crystal structure = molecular target: the molecule itself; experiment: crystal structure
[1] = molecular target: B1; experiment: crystal structure

Row | Binder | binding result (crystal structure) | binding result [1]
1 | B1 | binds | –
2 | B2 | – | binds
